Approximate LacZ pseudotype titer IU/ml data for two substances are collected here from US20030175904A1.

What all share (experiment): cell-based or functional assay
Test [1] has as its target human PERV-A receptor PHuR-A1 (human) (UniProt Q9HAB3).
For test [2], the target named is human PERV-A receptor PHuR-A2 (human) (UniProt Q9NWF4).
Test [3] addresses baboon PERV-A receptor PBaR-A1 (baboon) (UniProt Q863Y8).
UniProt Q863Y8, sequence (Q863Y8 whole entry): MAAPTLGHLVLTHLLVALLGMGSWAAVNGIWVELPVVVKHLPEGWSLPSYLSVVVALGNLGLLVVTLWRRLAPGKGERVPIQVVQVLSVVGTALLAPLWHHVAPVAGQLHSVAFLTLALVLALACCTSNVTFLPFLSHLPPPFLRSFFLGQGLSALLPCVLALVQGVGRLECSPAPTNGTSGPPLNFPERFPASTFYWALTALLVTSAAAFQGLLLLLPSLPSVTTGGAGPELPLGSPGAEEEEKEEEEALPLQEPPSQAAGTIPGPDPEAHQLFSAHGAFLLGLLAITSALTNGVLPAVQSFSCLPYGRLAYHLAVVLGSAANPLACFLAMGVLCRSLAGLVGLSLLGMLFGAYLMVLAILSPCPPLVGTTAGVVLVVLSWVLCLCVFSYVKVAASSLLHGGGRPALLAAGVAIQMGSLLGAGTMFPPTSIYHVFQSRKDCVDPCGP

UniProt Q9HAB3, sequence (Q9HAB3 whole entry G341S): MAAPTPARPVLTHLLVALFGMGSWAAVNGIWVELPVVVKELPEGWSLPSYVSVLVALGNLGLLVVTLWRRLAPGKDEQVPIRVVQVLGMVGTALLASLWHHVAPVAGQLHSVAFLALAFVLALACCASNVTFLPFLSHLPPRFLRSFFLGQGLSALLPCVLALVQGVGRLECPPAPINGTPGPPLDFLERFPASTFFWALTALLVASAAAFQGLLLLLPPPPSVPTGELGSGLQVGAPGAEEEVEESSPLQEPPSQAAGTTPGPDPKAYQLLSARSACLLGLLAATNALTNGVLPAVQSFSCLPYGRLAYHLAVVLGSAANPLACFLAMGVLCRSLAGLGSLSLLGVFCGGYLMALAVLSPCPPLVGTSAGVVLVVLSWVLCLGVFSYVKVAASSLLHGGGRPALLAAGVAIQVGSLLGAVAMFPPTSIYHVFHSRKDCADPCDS
UniProt Q9NWF4, sequence (Q9NWF4 whole entry Q70R/V296M): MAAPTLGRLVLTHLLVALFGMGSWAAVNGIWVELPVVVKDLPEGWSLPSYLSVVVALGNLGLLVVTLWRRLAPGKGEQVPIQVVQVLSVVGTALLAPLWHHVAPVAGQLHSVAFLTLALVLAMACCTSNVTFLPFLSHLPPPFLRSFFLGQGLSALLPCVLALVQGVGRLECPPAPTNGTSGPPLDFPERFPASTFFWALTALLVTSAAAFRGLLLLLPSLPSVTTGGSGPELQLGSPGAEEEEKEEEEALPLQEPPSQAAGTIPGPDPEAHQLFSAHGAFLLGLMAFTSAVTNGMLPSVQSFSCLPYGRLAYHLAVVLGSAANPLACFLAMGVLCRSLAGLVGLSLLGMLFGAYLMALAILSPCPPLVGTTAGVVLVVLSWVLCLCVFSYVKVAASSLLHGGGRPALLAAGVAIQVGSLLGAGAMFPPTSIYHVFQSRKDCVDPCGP

Regarding “PERV-A 14/220 envelope (ENV) protein, carried on replication competent recombinant PERV-A/PERV-C virus particles”, the Approximate LacZ pseudotype titer IU/ml in test [1] was determined as 4000 IU/ml; in test [2], 20000 IU/ml; in test [3] it was 6000 IU/ml.
For the substance “TelCeB PERV-A18 LacZ pseudotype (PERV-A envelope)”, the Approximate LacZ pseudotype titer IU/ml was found to be 6 IU/ml in test [1] and 1000 IU/ml in test [2].
